The results in this text go back to article PMC4841217, “Structure and stability of recombinant bovine odorant-binding protein: III. Peculiarities of the wild type bOBP unfolding in crowded milieu” (PeerJ, 2016).

This data set deals with the molecule itself. Description: intrinsic tryptophan fluorescence (parameter A, fluorescence anisotropy r) with GdnHCl unfolding-refolding curves; recombinant bOBP 0.1-0.2 mg/mL in 20 mM Na-phosphate pH 7.8 with PEG-600, PEG-4000 or PEG-12000 at 80, 150 or 300 mg/mL; incubated at 4 °C, measured at 23 °C; monomer to dimer, inferred from raised anisotropy and sigmoidal unfolding curves.

B1: recombinant bovine odorant-binding protein (natural protein)
chain: AQEEEAEQNLSELSGPWRTVYIGSTNPEKIQENGPFRTYFRELVFDDEKGTVDFYFSVKRDGKWKNVHVKATKQDDGTYVADYEGQNVFKIVSLSRTHLVAHNINVDKHGQTTELTELFVKLNVEDEDLEKFWKLTEDKGIDKKNVVNFLENEDHPHPE
notes: Written as the single chain that associates with itself into the domain-swapped dimer; also called bOBP; recombinant bOBP; source: E. coli BL21(DE3), purified (Ni+-agarose, HisGraviTrap columns)
Take B1: the binding result is reported as “binds”.
